Ends that are not written are not given here.
B1: Margatoxin (TrMgTx) (peptide)
chain: {Glu-Phe-H2N-H2N-H2N-H2N-H2N-H2N}-LQIEGRTIINVKCTSPKQCLPPCKAQFGQSAGAKCMNGKCKCYPH
modifications: not fully specified; ends and bridges not checked
B2: Margatoxin (UrMgTx) (peptide)
chain: TIINVKCTSPKQCLPPCKAQFGQSAGAKCMNGKCKCYPH

Tests used:
Kv1.3 [1] = target: T1, Kv1.3 (Homo sapiens, UniProt P22001); experiment: patch-clamp dose-response
Kv1.2 [2] = target: T2, Kv1.2 (Homo sapiens, UniProt P16389); experiment: patch-clamp dose-response
T2 sequence (P16389 whole entry): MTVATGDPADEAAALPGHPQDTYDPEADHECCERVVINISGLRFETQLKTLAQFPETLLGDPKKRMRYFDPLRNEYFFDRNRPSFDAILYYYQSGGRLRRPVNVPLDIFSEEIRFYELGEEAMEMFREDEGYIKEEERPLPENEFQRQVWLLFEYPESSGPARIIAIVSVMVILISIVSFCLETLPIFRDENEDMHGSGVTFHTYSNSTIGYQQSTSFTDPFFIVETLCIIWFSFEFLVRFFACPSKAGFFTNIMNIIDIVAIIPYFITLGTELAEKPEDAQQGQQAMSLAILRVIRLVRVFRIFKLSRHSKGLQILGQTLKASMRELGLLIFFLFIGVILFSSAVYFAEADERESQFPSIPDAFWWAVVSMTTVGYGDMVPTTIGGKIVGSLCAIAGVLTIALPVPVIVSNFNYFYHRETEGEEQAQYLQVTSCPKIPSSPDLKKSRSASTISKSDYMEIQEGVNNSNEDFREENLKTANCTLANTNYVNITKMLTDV

Kv1.3 [3] = target: T1, Kv1.3; experiment: patch-clamp kinetics (koff/kon)
Kv1.2 [4] = target: T2, Kv1.2; experiment: patch-clamp kinetics (koff/kon)

T1 sequence (P22001 whole entry): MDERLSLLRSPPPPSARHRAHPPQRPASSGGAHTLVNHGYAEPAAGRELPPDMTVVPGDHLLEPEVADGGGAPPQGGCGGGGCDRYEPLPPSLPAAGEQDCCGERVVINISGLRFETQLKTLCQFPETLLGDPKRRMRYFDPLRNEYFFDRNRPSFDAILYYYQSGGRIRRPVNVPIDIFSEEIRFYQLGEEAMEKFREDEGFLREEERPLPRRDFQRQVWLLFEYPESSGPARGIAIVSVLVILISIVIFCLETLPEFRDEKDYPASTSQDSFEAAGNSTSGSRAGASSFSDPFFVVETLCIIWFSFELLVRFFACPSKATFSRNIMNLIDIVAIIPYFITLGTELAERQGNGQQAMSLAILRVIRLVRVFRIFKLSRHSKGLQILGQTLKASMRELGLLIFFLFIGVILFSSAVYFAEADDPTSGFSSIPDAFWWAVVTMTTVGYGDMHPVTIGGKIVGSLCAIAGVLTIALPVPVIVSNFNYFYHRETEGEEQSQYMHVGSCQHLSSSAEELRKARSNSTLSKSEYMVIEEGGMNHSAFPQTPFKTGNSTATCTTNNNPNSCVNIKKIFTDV

| Binder | Kd (Kv1.3 [1]) | Kd (Kv1.2 [2]) | Kd (Kv1.3 [3]) | Kd (Kv1.2 [4]) |
| --- | --- | --- | --- | --- |
| B1 | 0.086 nM | 0.064 nM | 0.0839 nM | 0.0623 nM |
| B2 | 0.05 nM | 0.014 nM | 0.0522 nM | 0.015 nM |
